Source: patent US12605469B2, “Tumor specific antibody conjugates and uses therefor” (The University of North Carolina at Charlotte, priority 2019, dated 2026)
Changes are numbered by the printed parent chain.

Key:
[1] = target: T1, human MUC1 antigen in plate ELISA (KCM lysate) (human, UniProt P15941 24-1255, limits assumed, tumor-associated glycosylation, not specified further); test: sandwich ELISA: hybridoma antibody coat, KCM lysate 10 µg/mL, test antibody in 5-fold dilutions, HRP goat anti-human IgG, OD450
[2] = target: T2, human MUC1, tumor-associated form (tMUC), on tumor cells and tumor tissue (human, UniProt P15941 24-1255, tumor-associated (aberrant) glycosylation, not specified further); test: flow cytometry of particle uptake, 12 hours at 37 °C; KCM cells (human MUC1) against KCKO cells (MUC1 knockout)
T2 construct: also called tMUC1; tumor-associated glycosylated MUC1

[3] = target: T1, human MUC1 antigen in plate ELISA (KCM …); test: sandwich ELISA: hybridoma antibody coat, KCM lysate 10 µg/mL, test antibody in 5-fold dilutions, HRP goat anti-human IgG

T1 sequence (P15941 other isoform, or with tags, fused parts or gaps limits assumed): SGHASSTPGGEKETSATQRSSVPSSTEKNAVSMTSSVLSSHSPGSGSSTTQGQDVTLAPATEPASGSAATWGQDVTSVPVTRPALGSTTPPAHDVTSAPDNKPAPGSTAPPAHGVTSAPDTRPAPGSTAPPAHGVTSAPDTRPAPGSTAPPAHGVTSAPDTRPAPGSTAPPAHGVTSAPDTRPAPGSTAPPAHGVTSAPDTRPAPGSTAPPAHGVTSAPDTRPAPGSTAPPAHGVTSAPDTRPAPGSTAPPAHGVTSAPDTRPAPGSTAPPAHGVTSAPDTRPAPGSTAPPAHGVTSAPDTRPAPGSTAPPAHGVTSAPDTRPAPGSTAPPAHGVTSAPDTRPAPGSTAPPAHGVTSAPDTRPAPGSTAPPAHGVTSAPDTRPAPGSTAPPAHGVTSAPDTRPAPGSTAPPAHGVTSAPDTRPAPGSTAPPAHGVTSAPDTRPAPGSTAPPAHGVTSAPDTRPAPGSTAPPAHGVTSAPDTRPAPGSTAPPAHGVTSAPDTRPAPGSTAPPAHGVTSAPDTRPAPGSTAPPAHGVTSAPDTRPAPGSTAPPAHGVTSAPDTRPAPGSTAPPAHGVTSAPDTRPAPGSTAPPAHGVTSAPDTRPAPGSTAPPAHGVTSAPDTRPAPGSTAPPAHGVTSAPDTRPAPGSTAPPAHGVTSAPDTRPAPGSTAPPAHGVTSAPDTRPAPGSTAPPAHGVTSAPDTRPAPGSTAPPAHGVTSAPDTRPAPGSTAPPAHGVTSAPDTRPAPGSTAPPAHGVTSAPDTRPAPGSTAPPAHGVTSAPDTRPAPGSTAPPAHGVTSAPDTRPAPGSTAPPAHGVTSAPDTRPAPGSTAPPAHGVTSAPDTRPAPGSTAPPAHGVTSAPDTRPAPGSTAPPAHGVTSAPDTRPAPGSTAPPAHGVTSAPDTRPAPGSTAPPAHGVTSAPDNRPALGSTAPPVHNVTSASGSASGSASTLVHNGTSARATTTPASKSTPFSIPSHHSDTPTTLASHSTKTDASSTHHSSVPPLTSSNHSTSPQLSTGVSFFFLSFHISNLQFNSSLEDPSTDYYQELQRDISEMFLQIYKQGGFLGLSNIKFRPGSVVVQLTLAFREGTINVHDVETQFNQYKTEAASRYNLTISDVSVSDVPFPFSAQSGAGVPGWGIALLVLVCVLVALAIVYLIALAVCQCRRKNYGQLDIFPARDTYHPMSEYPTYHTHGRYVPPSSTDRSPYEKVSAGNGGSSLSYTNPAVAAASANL
T2 sequence (P15941 other isoform, or with tags, fused parts or gaps limits assumed): as above

B1: Chimeric parental antibody (H4965 + L4965) (antibody, IgG1, V domains shown)
VH: EVQLQQSGGERATPGASVKMSCKTSGYTFTNYWMHWVKQRPGQGLEWIGYINPSSGYTQYNQKFKDKATLTADKSSSTAYIQLSSLTSEDSAVYYCSTYYGDYLFPYWGQGTLVTVSA
VL: DVLMTQTPLSLPVSLGDQASISCRSSQDIVYGNGNTYLEWYLQKPGQSPKLLIYKVSNRFSGVPDRFSGSGSGTDFTLKISRVEAEDLGVYYCFQGSHVPYTFGGGTKLEIKR
notes: also called pp 9854; Chimeric Parental HC
EC50 [1]: 0.006 µg/mL

B2: Humanized HC2 + LC2 (antibody, human IgG2, kappa, V domains shown)
VH: QVQLVQSGAEVKKPGASVKVSCKASGYTFTNYWMHWVRQAPGQGLEWMGYINPSSGYTQYNQKFQGRVTMTADTSTSTVYMELSSLRSEDTAVYYCSTYYGDYLFPYWGQGTLVTVSS
VL: B1 VL with L3V, T7S, S14T, D17Q, Q18P, L42Q, K44R, K50R, L88V, G105Q
notes: Listing: IgG2 heavy chain; also called H6246 + L6246
EC50 [1]: 0.032 µg/mL

B3: TAB-004 antibody-conjugated mesoporous silica nanoparticle (antibody, V domains shown)
VH: B1 VH
VL: B1 VL
modifications: antibody coupled by EDC to the carboxylic acid groups of a PEG-2K linker on an FITC-labelled mesoporous silica nanoparticle; site not stated
notes: Many copies of TAB-004 on one particle; also called TAB-004-MSN
fold increase in uptake by KCM cells as compared to KCKO cells [2]: 8 fold

B4: Humanized HC2 + LC3 (antibody, human IgG2, kappa, V domains shown)
VH: B2 VH
VL: DIVLTQSPLSLPVTLGQPASISCRSSQDIVYGNGNTYLEWYQQRPGQSPRLLIYKVSNRFSGVPDSFSGSGSGTDFTLTISRVEAEDVGIYYCFQGSHVPYTFGEGTKLEIKR
notes: Listing: IgG2 heavy chain; also called H6246 + L6247
EC50 [1]: 0.027 µg/mL

B5: Humanized HC1 + LC1 (antibody, human IgG2, kappa, V domains shown)
VH: B2 VH with A72R
VL: B4 VL with I2V, L4M, Y41F, S66R, T79K, I90V, E105Q
notes: also called H6245 + L6245
binding result [3]: no binding

B6: Humanized HC1 + LC3 (antibody, human IgG2, kappa, V domains shown)
VH: B2 VH with A72R
VL: B4 VL
notes: Listing: IgG2 heavy chain; also called H6245 + L6247
EC50 [1]: 0.051 µg/mL

B7: Humanized HC1 + LC2 (antibody, human IgG2, kappa, V domains shown)
VH: B2 VH with A72R
VL: B4 VL with I2V, L4M, S66R, T79K, I90V, E105Q
notes: Listing: IgG2 heavy chain; also called H6245 + L6246
EC50 [1]: 0.055 µg/mL

B8: Humanized HC3 + LC2 (antibody, human IgG2, kappa, V domains shown)
VH: B2 VH with Q1E, R67W, T76I, V79A, S85R, E89D
VL: B4 VL with I2V, L4M, S66R, T79K, I90V, E105Q
notes: Listing: IgG2 heavy chain; also called H6247 + L6246
EC50 [1]: 0.007 µg/mL

B9: Humanized HC3 + LC1 (antibody, human IgG2, kappa, V domains shown)
VH: B2 VH with Q1E, R67W, T76I, V79A, S85R, E89D
VL: B4 VL with I2V, L4M, Y41F, S66R, T79K, I90V, E105Q
notes: Listing: IgG2 heavy chain; also called H6247 + L6245
binding result [3]: no binding

B10: Humanized HC3 + LC3 (antibody, human IgG2, kappa, V domains shown)
VH: B2 VH with Q1E, R67W, T76I, V79A, S85R, E89D
VL: B4 VL
notes: Listing: IgG2 heavy chain; also called H6247 + L6247
EC50 [1]: 0.004 µg/mL

B11: Humanized HC2 + LC1 (antibody, human IgG2, kappa, V domains shown)
VH: B2 VH
VL: B4 VL with I2V, L4M, Y41F, S66R, T79K, I90V, E105Q
notes: Listing: IgG2 heavy chain; also called H6246 + L6245
binding result [3]: no binding
